{"source": "patent US8969060B2", "about": "“Modified glucose dehydrogenase” (Ikeda Food Research Co., Ltd., priority 2011, dated 2015)", "molecules": {"B1": {"name": "K354Y: modified GLD: SEQ ID NO: 1 with substitution K354Y (protein, listed as Aspergillus terreus)", "chain": "MLGKLSFLSALSLAVAAPLSNSTSAKYDYIVIGGGTSGLAVANRLSEDPNVNVLILEAGGSVWNNPNVTNVDGYGLAFGSDIDWQYQSVNQPYGGNLSQVLRAGKALGGTSTINGMAYTRAEDVQIDAWETIGNTGWTWKNLFPYYRKSENFTVPTKSQTSLGASYEAGAHGHEGPLDVAFTQIESNNLTTYLNRTFQGMGLPWTEDVNGGKMRGFNLYPSTVNLEEYVREDAARAYYWPYKSRPNLHVLLNTFANRIVWDGEAHDGHITASGVEITSRNGTVRVINAEKEVIVSAGALKSPAILELSGIGNPSVLDKHNIPVKVNLPTVGENLQDQVNSHMDASGNTSISGTYAVSYPDVYDVFGDEAESVAKQIRANLKQYAADTAKANGNIMKAADLERLFEVQYDLIFKGRVPIAEVLNYPGSATSVFAEFWALLPFARGSVHIGSSNPAEFPVINPNYFMLDWDAKSYVAVAKYIRRSFESYPLSSIVKESTPGYDVIPRNASEQSWKEWVFDKNYRSNFHPVGTAAMMPREIGGVVDERLNVYGTTNVRVVDASVLPFQVCGHLVSTLYAVAERAADLIKADAGRR", "modifications": "SIGNAL (1)..(19)"}, "B2": {"name": "G426H: modified GLD: SEQ ID NO: 1 with substitution G426H (protein, listed as Aspergillus terreus)", "chain": "B1 chain with Y354K, G426H", "modifications": "SIGNAL (1)..(19)"}, "B3": {"name": "Y424K: modified GLD: SEQ ID NO: 1 with substitution Y424K (protein, listed as Aspergillus terreus)", "chain": "B1 chain with Y354K, Y424K", "modifications": "SIGNAL (1)..(19)"}, "B4": {"name": "G426E: modified GLD: SEQ ID NO: 1 with substitution G426E (protein, listed as Aspergillus terreus)", "chain": "B1 chain with Y354K, G426E", "modifications": "SIGNAL (1)..(19)"}, "B5": {"name": "Y424V: modified GLD: SEQ ID NO: 1 with substitution Y424V (protein, listed as Aspergillus terreus)", "chain": "B1 chain with Y354K, Y424V", "modifications": "SIGNAL (1)..(19)"}, "B6": {"name": "G352A: modified GLD: SEQ ID NO: 1 with substitution G352A (protein, listed as Aspergillus terreus)", "chain": "B1 chain with G352A, Y354K", "modifications": "SIGNAL (1)..(19)"}, "B7": {"name": "Y424N: modified GLD: SEQ ID NO: 1 with substitution Y424N (protein, listed as Aspergillus terreus)", "chain": "B1 chain with Y354K, Y424N", "modifications": "SIGNAL (1)..(19)"}, "B8": {"name": "G352C: modified GLD: SEQ ID NO: 1 with substitution G352C (protein, listed as Aspergillus terreus)", "chain": "B1 chain with G352C, Y354K", "modifications": "SIGNAL (1)..(19)"}, "B9": {"name": "G426M: modified GLD: SEQ ID NO: 1 with substitution G426M (protein, listed as Aspergillus terreus)", "chain": "B1 chain with Y354K, G426M", "modifications": "SIGNAL (1)..(19)"}, "B10": {"name": "K354R: modified GLD: SEQ ID NO: 1 with substitution K354R (protein, listed as Aspergillus terreus)", "chain": "B1 chain with Y354R", "modifications": "SIGNAL (1)..(19)"}, "B11": {"name": "G352D: modified GLD: SEQ ID NO: 1 with substitution G352D (protein, listed as Aspergillus terreus)", "chain": "B1 chain with G352D, Y354K", "modifications": "SIGNAL (1)..(19)"}, "B12": {"name": "G426I: modified GLD: SEQ ID NO: 1 with substitution G426I (protein, listed as Aspergillus terreus)", "chain": "B1 chain with Y354K, G426I", "modifications": "SIGNAL (1)..(19)"}, "B13": {"name": "G426R: modified GLD: SEQ ID NO: 1 with substitution G426R (protein, listed as Aspergillus terreus)", "chain": "B1 chain with Y354K, G426R", "modifications": "SIGNAL (1)..(19)"}, "B14": {"name": "K354S: modified GLD: SEQ ID NO: 1 with substitution K354S (protein, listed as Aspergillus terreus)", "chain": "B1 chain with Y354S", "modifications": "SIGNAL (1)..(19)"}, "B15": {"name": "Y424S: modified GLD: SEQ ID NO: 1 with substitution Y424S (protein, listed as Aspergillus terreus)", "chain": "B1 chain with Y354K, Y424S", "modifications": "SIGNAL (1)..(19)"}, "B16": {"name": "G426N: modified GLD: SEQ ID NO: 1 with substitution G426N (protein, listed as Aspergillus terreus)", "chain": "B1 chain with Y354K, G426N", "modifications": "SIGNAL (1)..(19)"}, "B17": {"name": "Y424C: modified GLD: SEQ ID NO: 1 with substitution Y424C (protein, listed as Aspergillus terreus)", "chain": "B1 chain with Y354K, Y424C", "modifications": "SIGNAL (1)..(19)"}, "B18": {"name": "Y424Q: modified GLD: SEQ ID NO: 1 with substitution Y424Q (protein, listed as Aspergillus terreus)", "chain": "B1 chain with Y354K, Y424Q", "modifications": "SIGNAL (1)..(19)"}, "B19": {"name": "Y424R: modified GLD: SEQ ID NO: 1 with substitution Y424R (protein, listed as Aspergillus terreus)", "chain": "B1 chain with Y354K, Y424R", "modifications": "SIGNAL (1)..(19)"}, "B20": {"name": "Y424E: modified GLD: SEQ ID NO: 1 with substitution Y424E (protein, listed as Aspergillus terreus)", "chain": "B1 chain with Y354K, Y424E", "modifications": "SIGNAL (1)..(19)"}, "B21": {"name": "Y424D: modified GLD: SEQ ID NO: 1 with substitution Y424D (protein, listed as Aspergillus terreus)", "chain": "B1 chain with Y354K, Y424D", "modifications": "SIGNAL (1)..(19)"}, "B22": {"name": "G426F: modified GLD: SEQ ID NO: 1 with substitution G426F (protein, listed as Aspergillus terreus)", "chain": "B1 chain with Y354K, G426F", "modifications": "SIGNAL (1)..(19)"}, "B23": {"name": "G426K: modified GLD: SEQ ID NO: 1 with substitution G426K (protein, listed as Aspergillus terreus)", "chain": "B1 chain with Y354K, G426K", "modifications": "SIGNAL (1)..(19)"}, "B24": {"name": "G426P: modified GLD: SEQ ID NO: 1 with substitution G426P (protein, listed as Aspergillus terreus)", "chain": "B1 chain with Y354K, G426P", "modifications": "SIGNAL (1)..(19)"}, "B25": {"name": "G426L: modified GLD: SEQ ID NO: 1 with substitution G426L (protein, listed as Aspergillus terreus)", "chain": "B1 chain with Y354K, G426L", "modifications": "SIGNAL (1)..(19)"}, "B26": {"name": "Y424T: modified GLD: SEQ ID NO: 1 with substitution Y424T (protein, listed as Aspergillus terreus)", "chain": "B1 chain with Y354K, Y424T", "modifications": "SIGNAL (1)..(19)"}}, "note": "Changes are numbered by the printed parent chain. In names and notes the source's numbering stands."}
{"experiment": "Relative enzymatic activity of GLD (DCIP/1-m-PMS, plate reader, yeast culture supernatant) with proflavin hydrochloride present", "type": "biochemical", "details": "site-specific mutants, inhibitor final concentration 1 mM", "outline": "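Culture supernatant diluted and mixed with reagent of phosphate buffer pH 7.0, 1.0 M D-glucose, 3 mM DCIP, 3 mM 1-m-PMS and methanol (0.1:1:0.14:0.2:0.06). DCIP absorbance decrease at 600 nm followed; proflavin hydrochloride in methanol replaced methanol at 1 mM final. Activity expressed as % of inhibitor-free blank.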", "units": {"Relative Activity [%] Proflavin hydrochloride": "%"}}
{"molecule": "B1", "Relative Activity [%] Proflavin hydrochloride": 15.1}
{"molecule": "B2", "Relative Activity [%] Proflavin hydrochloride": 48.7}
{"molecule": "B3", "Relative Activity [%] Proflavin hydrochloride": 52.5}
{"molecule": "B4", "Relative Activity [%] Proflavin hydrochloride": 32.6}
{"molecule": "B5", "Relative Activity [%] Proflavin hydrochloride": 46.7}
{"molecule": "B6", "Relative Activity [%] Proflavin hydrochloride": 47.9}
{"molecule": "B7", "Relative Activity [%] Proflavin hydrochloride": 55.6}
{"molecule": "B8", "Relative Activity [%] Proflavin hydrochloride": 43.8}
{"molecule": "B9", "Relative Activity [%] Proflavin hydrochloride": 58.8}
{"molecule": "B10", "Relative Activity [%] Proflavin hydrochloride": 12.6}
{"molecule": "B11", "Relative Activity [%] Proflavin hydrochloride": 42.7}
{"molecule": "B12", "Relative Activity [%] Proflavin hydrochloride": 63.4}
{"molecule": "B13", "Relative Activity [%] Proflavin hydrochloride": 43.0}
{"molecule": "B14", "Relative Activity [%] Proflavin hydrochloride": 21.3}
{"molecule": "B15", "Relative Activity [%] Proflavin hydrochloride": 61.0}
{"molecule": "B16", "Relative Activity [%] Proflavin hydrochloride": 51.9}
{"molecule": "B17", "Relative Activity [%] Proflavin hydrochloride": 45.9}
{"molecule": "B18", "Relative Activity [%] Proflavin hydrochloride": 50.2}
{"molecule": "B19", "Relative Activity [%] Proflavin hydrochloride": 55.6}
{"molecule": "B20", "Relative Activity [%] Proflavin hydrochloride": 37.1}
{"molecule": "B21", "Relative Activity [%] Proflavin hydrochloride": 37.2}
{"molecule": "B22", "Relative Activity [%] Proflavin hydrochloride": 51.8}
{"molecule": "B23", "Relative Activity [%] Proflavin hydrochloride": 65.4}
{"molecule": "B24", "Relative Activity [%] Proflavin hydrochloride": 33.3}
{"molecule": "B25", "Relative Activity [%] Proflavin hydrochloride": 63.7}
{"molecule": "B26", "Relative Activity [%] Proflavin hydrochloride": 43.4}
{"experiment": "Relative enzymatic activity of GLD (DCIP/1-m-PMS, plate reader, yeast culture supernatant) with 1,10-phenanthroline present", "type": "biochemical", "details": "site-specific mutants, inhibitor final concentration 1 mM", "outline": "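Yeast transformants grown in YPD, 30° C., 24 h; diluted culture supernatant assayed in phosphate buffer pH 7.0 with D-glucose, DCIP and 1-m-PMS, DCIP absorbance change at 600 nm. Relative activity (%) = activity with 1 mM 1,10-phenanthroline (final, replacing methanol) divided by activity without it.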", "units": {"Relative Activity [%] 1,10-Phenanthroline": "%"}}
{"molecule": "B1", "Relative Activity [%] 1,10-Phenanthroline": 56.0}
{"molecule": "B2", "Relative Activity [%] 1,10-Phenanthroline": 54.9}
{"molecule": "B3", "Relative Activity [%] 1,10-Phenanthroline": 71.9}
{"molecule": "B4", "Relative Activity [%] 1,10-Phenanthroline": 64.4}
{"molecule": "B5", "Relative Activity [%] 1,10-Phenanthroline": 49.1}
{"molecule": "B6", "Relative Activity [%] 1,10-Phenanthroline": 76.1}
{"molecule": "B7", "Relative Activity [%] 1,10-Phenanthroline": 89.9}
{"molecule": "B8", "Relative Activity [%] 1,10-Phenanthroline": 86.2}
{"molecule": "B9", "Relative Activity [%] 1,10-Phenanthroline": 78.3}
{"molecule": "B10", "Relative Activity [%] 1,10-Phenanthroline": 64.4}
{"molecule": "B11", "Relative Activity [%] 1,10-Phenanthroline": 87.8}
{"molecule": "B12", "Relative Activity [%] 1,10-Phenanthroline": 93.2}
{"molecule": "B13", "Relative Activity [%] 1,10-Phenanthroline": 71.5}
{"molecule": "B14", "Relative Activity [%] 1,10-Phenanthroline": 71.6}
{"molecule": "B15", "Relative Activity [%] 1,10-Phenanthroline": 81.4}
{"molecule": "B16", "Relative Activity [%] 1,10-Phenanthroline": 69.6}
{"molecule": "B17", "Relative Activity [%] 1,10-Phenanthroline": 73.7}
{"molecule": "B18", "Relative Activity [%] 1,10-Phenanthroline": 80.2}
{"molecule": "B19", "Relative Activity [%] 1,10-Phenanthroline": 70.3}
{"molecule": "B20", "Relative Activity [%] 1,10-Phenanthroline": 87.5}
{"molecule": "B21", "Relative Activity [%] 1,10-Phenanthroline": 87.1}
{"molecule": "B22", "Relative Activity [%] 1,10-Phenanthroline": 60.5}
{"molecule": "B23", "Relative Activity [%] 1,10-Phenanthroline": 94.3}
{"molecule": "B24", "Relative Activity [%] 1,10-Phenanthroline": 56.1}
{"molecule": "B25", "Relative Activity [%] 1,10-Phenanthroline": 91.2}
{"molecule": "B26", "Relative Activity [%] 1,10-Phenanthroline": 71.2}
